Laboratory results reported in FireProtDB (doi:10.1016/j.jmb.2003.11.050).

Conditions: Bacillus caldolyticus; pH 7; 25 °C; GdnHCl; Fluorescence; sodium cacodylate 100 mM; reversible: yes; whole UniProt chain shown

B1: Cold shock protein CspB wild type, P41016 (protein)
chain: MQRGKVKWFNNEKGYGFIEVEGGSDVFVHFTAIQGEGFKTLEEGQEVSFEIVQGNRGPQAANVVKL
denaturant m value: 1.53 kcal/mol/M
denaturant midpoint (higher = more stable): 2.36 M
unfolding free energy: 3.63 kcal/mol
